Test results as given in patent US20170081412A1 (MITSUBISHI TANABE PHARMA, published 2017).

T1: recombinant human IL-6R (human, UniProt P08887 20-365)
T1 construct: The sandwich ELISA used a His-tagged form; also called soluble IL-6R; His-tagged human IL-6R
T1 sequence: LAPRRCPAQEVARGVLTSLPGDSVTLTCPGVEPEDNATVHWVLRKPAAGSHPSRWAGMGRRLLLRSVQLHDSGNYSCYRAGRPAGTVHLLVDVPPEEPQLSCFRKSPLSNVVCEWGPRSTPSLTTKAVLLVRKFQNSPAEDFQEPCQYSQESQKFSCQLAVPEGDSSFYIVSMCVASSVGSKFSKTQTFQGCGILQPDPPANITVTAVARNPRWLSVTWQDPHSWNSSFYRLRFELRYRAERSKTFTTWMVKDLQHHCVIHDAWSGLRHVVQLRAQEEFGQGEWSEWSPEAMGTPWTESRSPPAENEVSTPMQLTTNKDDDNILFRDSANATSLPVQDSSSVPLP

T2: human IL-6R on the surface of HEK Blue IL-6 cells (human, UniProt P08887 20-468)
T2 construct: HEK Blue IL-6 cells (Invivogen); also called cell surface IL-6R; HEK-Blue-IL6 cells (IL6R+)
T2 sequence: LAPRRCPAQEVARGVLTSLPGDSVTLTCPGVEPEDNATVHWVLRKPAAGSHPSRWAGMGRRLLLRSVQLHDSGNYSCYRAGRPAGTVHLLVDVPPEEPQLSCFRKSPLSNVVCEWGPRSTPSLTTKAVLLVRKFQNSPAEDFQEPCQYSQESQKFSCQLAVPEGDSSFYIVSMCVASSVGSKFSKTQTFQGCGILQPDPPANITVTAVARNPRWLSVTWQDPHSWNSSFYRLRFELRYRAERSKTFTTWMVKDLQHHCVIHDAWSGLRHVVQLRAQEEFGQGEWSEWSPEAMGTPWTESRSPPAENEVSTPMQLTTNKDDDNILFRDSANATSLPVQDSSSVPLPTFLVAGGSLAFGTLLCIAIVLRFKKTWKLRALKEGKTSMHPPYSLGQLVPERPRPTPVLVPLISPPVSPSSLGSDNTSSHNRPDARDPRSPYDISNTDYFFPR


Key:
[1] = biological target: T1, recombinant human IL-6R; assay: SPR: antibody captured on an amine-coupled anti-human antibody (GLM chip), recombinant human IL-6R flowed as analyte
Text: (§1) To determine the affinity and kinetic parameters of FynomAb binding to human IL-17A and human IL-6R, an anti-human antibody was amine coupled to a GLM chip.

[2] = biological target: T1, recombinant human IL-6R; assay: SPR (representative sensorgram with fit): antibody captured on an amine-coupled anti-human antibody (GLM chip), recombinant human IL-6R flowed as analyte
Text: as §1

[3] = biological target: T1, recombinant human IL-6R; assay: SPR, binder captured by anti-human antibody on GLM chip, IL-6R as analyte; average of 4 experiments; column head prints nM, value taken as M
Text: as §1

[4] = biological target: T2, human IL-6R on the surface of HEK Blue …; assay: flow cytometry: HEK-Blue IL-6 cells (IL-6R+), drug titrated about 0.005-300 nM, detected with anti-human IgG-Alexa488
[5] = biological target: T1, recombinant human IL-6R; assay: SPR, binder captured by anti-human antibody on GLM chip, IL-6R as analyte; average of 4 experiments
Text: as §1

[6] = biological target: T3, recombinant human IL-17A (human, UniProt Q16552 24-155, limits assumed); assay: SPR: antibody captured on an amine-coupled anti-human antibody (GLM chip), recombinant human IL-17A flowed as analyte
T3 construct: In the flow cytometry assay it was biotinylated; also called soluble IL-17A
T3 sequence (Q16552 24-155 limits assumed): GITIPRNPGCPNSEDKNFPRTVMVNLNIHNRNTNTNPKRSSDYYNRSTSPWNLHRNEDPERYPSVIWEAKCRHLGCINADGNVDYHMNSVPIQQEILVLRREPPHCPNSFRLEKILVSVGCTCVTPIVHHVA
Text: as §1

[7] = biological target: T1, recombinant human IL-6R; assay: SPR (representative sensorgram with fit): antibody captured on an amine-coupled anti-human antibody (GLM chip), recombinant human IL-6R flowed as analyte; remark: listed apart in the source
Text: as §1

[8] = biological target: T1, recombinant human IL-6R; assay: SPR, binder captured by anti-human antibody on GLM chip, IL-6R as analyte; average of 6 experiments; column head prints nM, value taken as M
Text: as §1

[9] = biological target: T1, recombinant human IL-6R; assay: SPR, binder captured by anti-human antibody on GLM chip, IL-6R as analyte; average of 6 experiments
Text: as §1

Row | Binder | binding result [1] | Kd [2] [nM] | koff [2] [s⁻¹] | kon [2] [M⁻¹ s⁻¹] | Kd [3] [nM] | EC50 (read off the curve) [4] [nM] | koff [5] [s⁻¹] | kon [5] [M⁻¹ s⁻¹] | binding result [6] | Kd [7] [nM] | koff [7] [s⁻¹] | kon [7] [M⁻¹ s⁻¹] | Kd [8] [nM] | koff [9] [s⁻¹] | kon [9] [M⁻¹ s⁻¹]
1 | secukinumab (antibody, human IgG1, kappa, V domains shown) VH: EVQLVESGGGLVQPGGSLRLSCAASGFTFSNYWMNWVRQAPGKGLEWVAAINQDGSEKYYVGSVKGRFTISRDNAKNSLYLQMNSLRVEDTAVYYCVRDYYDILTDYYIHYWYFDLWGRGTLVTVSS VL: not shown | no binding |  |  |  |  |  |  |  |  |  |  |  |  |  | 
2 | tocilizumab (produced in house in CHO cells) (antibody, human IgG1, kappa, also called parental antibody) heavy: not shown light: not shown |  | 0.467 | 0.000199 | 427000 | 0.417 | ~1 | 0.000186 | 473000 | no binding | 0.41 | 0.000189 | 461000 |  |  | 
3 | Actemra (commercial tocilizumab) (antibody, human IgG1, kappa, also called commercial Actemra; commercial grade Actemra) heavy: not shown light: not shown |  | 0.467 | 0.000195 | 417000 |  |  |  |  | no binding |  |  |  | 0.499 | 0.000191 | 413000
